The source of these data is publication PMC3256758.

The target in test [1] is Pisum sativum (green pea) porphobilinogen synthase (PsPBGS) (Pisum sativum (green pea)). Nature of the test: native gel or EMSA.
Test [2] has as its target human porphobilinogen synthase, wild type (WT HsPBGS) (human) (UniProt P13716).
For test [3] the target is unchanged. This is another data set of the same source.
Test [4] shares this target. This is another data set of the same source.

Where “and” joins values, the source holds several entries; their conditions need not be identical. Equal values may be shown once. Read-outs that look alike come from different tables or passages of the source.

As for “Pisum sativum (green pea) porphobilinogen synthase (PsPBGS) (enzyme)”, in test [1], the stoichiometry N was 8 and 6.

Regarding “human porphobilinogen synthase, naturally occurring variant F12L (from UniProt P13716 1-330) (enzyme)”, the stoichiometry N was 6 and 8 in test [2]; 6 and 8 in test [3]. The same substance had a percent Phe12 (WT) chains in the hetero-octamers (Pool II) in test [4] of 70%.
